{
  "source": "paper doi:10.1101/2024.03.09.584257",
  "target": "ICP1 Cas1 (Vibrio cholerae phage ICP1_2011_A)",
  "data": [
    {"substance": "ICP1 Cas1 (natural protein)", "values": [
      {"measurement": "stoichiometry N", "result": 2}
    ]}
  ]
}
